These results are taken from patent US20240101645A1 (HENRY M JACKSON FOUNDATION FOR THE ADVANCEMENT OF MILITARY …, published 2024).

T1: HCoV-NL63 spike antigens (bead panel) (HCoV-NL63, UniProt Q6Q1S2 19-1296)
T1 sequence: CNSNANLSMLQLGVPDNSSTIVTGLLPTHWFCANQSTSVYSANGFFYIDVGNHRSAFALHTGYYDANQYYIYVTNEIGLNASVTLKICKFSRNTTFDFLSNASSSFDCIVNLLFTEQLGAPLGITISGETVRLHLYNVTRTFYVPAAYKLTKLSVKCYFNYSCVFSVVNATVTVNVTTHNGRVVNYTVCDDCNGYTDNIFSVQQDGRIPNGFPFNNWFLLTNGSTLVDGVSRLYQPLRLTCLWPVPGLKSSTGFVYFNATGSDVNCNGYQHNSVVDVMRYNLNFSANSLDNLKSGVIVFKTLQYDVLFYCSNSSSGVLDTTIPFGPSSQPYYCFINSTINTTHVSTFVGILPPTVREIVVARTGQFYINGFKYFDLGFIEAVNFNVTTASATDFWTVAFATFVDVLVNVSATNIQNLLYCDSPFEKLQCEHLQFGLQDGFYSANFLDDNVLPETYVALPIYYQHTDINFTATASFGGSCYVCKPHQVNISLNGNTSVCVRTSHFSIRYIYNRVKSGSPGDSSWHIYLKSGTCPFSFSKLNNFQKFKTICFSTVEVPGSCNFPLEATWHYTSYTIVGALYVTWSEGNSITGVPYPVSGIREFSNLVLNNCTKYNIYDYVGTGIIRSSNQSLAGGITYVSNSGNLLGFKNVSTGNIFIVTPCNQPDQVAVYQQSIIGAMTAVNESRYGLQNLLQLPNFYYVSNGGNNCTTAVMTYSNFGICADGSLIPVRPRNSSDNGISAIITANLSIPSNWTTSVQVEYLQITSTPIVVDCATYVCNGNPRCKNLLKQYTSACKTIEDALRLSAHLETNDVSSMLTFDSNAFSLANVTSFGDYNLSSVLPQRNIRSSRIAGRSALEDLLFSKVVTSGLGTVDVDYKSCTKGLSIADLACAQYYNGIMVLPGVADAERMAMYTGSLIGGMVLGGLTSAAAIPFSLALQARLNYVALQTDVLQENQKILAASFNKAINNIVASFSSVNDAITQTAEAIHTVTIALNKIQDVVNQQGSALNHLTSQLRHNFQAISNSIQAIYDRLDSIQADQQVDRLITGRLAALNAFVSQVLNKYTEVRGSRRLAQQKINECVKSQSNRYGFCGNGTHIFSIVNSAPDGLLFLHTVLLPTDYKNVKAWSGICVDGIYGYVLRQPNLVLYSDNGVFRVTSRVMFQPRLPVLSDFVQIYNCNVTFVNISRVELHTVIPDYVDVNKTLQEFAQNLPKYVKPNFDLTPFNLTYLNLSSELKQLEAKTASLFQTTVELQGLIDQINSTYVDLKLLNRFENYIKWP

T2: HCoV-OC43 spike antigens (bead panel) (HCoV-OC43, UniProt P36334 14-1297)
T2 sequence: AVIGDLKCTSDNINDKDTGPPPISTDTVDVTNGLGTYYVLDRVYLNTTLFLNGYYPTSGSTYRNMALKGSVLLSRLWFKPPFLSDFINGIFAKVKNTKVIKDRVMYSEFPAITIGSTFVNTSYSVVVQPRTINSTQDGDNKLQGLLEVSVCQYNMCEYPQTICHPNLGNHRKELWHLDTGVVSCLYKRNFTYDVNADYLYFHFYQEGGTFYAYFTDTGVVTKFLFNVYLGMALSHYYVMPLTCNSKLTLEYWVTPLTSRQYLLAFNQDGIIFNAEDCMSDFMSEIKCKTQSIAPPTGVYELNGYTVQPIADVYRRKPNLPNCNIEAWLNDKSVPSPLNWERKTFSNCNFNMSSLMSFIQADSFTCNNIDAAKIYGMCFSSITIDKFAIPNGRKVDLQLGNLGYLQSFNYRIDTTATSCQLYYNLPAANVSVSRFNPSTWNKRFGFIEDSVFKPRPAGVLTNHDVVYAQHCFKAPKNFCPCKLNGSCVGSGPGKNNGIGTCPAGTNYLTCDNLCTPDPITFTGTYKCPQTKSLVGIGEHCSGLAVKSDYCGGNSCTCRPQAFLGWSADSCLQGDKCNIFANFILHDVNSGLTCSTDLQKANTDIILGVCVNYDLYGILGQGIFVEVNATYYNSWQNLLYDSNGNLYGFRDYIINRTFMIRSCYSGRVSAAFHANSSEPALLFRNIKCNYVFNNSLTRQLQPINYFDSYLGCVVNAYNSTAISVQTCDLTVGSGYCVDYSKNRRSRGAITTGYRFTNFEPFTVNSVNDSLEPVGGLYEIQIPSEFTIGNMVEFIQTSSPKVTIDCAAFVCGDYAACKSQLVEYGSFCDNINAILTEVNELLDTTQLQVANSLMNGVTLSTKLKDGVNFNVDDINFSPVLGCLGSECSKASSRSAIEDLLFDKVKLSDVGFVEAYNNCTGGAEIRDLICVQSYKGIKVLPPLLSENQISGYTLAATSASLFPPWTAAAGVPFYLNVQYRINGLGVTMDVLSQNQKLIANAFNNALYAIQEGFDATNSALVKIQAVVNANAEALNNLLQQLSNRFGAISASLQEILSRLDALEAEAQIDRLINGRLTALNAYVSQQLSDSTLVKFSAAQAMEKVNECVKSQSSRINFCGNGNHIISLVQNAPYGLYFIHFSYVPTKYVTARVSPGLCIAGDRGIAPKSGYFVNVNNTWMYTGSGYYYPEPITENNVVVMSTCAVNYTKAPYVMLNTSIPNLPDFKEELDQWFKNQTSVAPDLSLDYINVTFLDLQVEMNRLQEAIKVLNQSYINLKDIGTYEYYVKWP

B1: COV_2196 (antibody, V domains shown)
VH: QVQLVQSGAEVKKPGASVKVSCKVSGYTLIELSMHWVRQAPGKGLEWMGGFDPEDAKTIYAQKFQGRVTMTEDTSTDTAYMELSSLTFEDTAVYYCATTPAFMAAAGDFDYWGQGTLVTVSS
VL: QPVLTQPSSVSVSPGQTATITCSGDVLAKKYARWFQQKPGQAPMLVIYKDTERPSGIPERFSGSSSGTTVTLTINGAQVEDEADYYCYSAAAWVFGGGTKLTVL
notes: human IgG1
B2: COV_3088 (antibody, V domains shown)
VH: EVQLVESGGGLVQPGGSLRLSCAASGFTFSSYDMHWVRQATGKGLEWVSAIGTAGDTYYPGSVKGRFTISRENAKNSLYLQMNSLRAGDTAVYYCARGSGWPPFFDYWGQGTLVTVSS
VL: SYELTQPPSVSVAPGKTARITCGGNNIGSKSVHWYQQKPGQAPVLVIYYDSDRPSGIPERFSGSNSGNTATLTISRVEAGDEADYYCQVWDSSSDHHWVFGGGTKLTVL
notes: human IgG1
B3: COV_2103 (antibody, V domains shown)
VH: EVQLVESGGGVVQPGRSLRLSCGASGFTFSSYGIHWVRQAPGKGLDWVAVIWHDGSQKYYGDSVKGRFTISRDNSKNTLYLQMNRLRAEDTAVYYCARDSGDDYDSSGYPIGNAFDLWGQGTMVTVSS
VL: DIQMTQSPSTLSASVGDRVTITCRASQFINSWLAWYQQKPGKAPKLLIYKASSLETGVPSRFSGSGSGTEFTLTISSLQPDDFATYYCQQYNTYSFTFGPGTKVDIK
notes: human IgG1
B4: COV_2054 (antibody, V domains shown)
VH: EVQLVESGGGVLQPGRSLRLSCAASGFTFNNYALHWVRQAPGKGLEWVAVISYDGSSKYYADSVRGRLTISRDNSRNTLYLQMNSLRPEDTAIYYCARDGDGLWLGESFYFDDWGQGTLVTVSS
VL: DIQMTQSPSTLSASVGDRVIITCRASQSISSWLAWYQQKPGKAPKLLIYEASTLQSGVPSRFSGSGSGTEFTLTISSLQPDDSATYYCQQYNSYPVHFSQGTKLEIK
notes: human IgG1
B5: COV_2027 (antibody, V domains shown)
VH: EVQLVESGGGLIQPGGSLRLSCAASGFSVSTNYMSWVRQAPGKGLEWVSIIYSGGGTYYADSVKGRFTISRDTSENTLYLQMNSLRAEDTAVYYCASFLVGATGQPWYWGQGTLVTVSS
VL: not shown
notes: human IgG1
B6: COV_2035 (antibody, V domains shown)
VH: QVQLVQSGAEVKKPGASVKVSCKVSGYTLPELSIHWVRQAPGKGLEWLGGFDPEDGKIIYAQKFQGRVTMTEDTSTDTAYMELSSLRSEDTAVYYCATSPAVVERGWFDPWGQGTLVTVSS
VL: QSALTQPPSASGSPGQSVTISCTGTSSDVGGYNYVSWYQQHPGKAPKLMIYEVSKRPSGVPDRFSGSKSGNMASLTVSGLQAEDEANYYCSSYAGSKRVFGGGTKLTVL
notes: human IgG1
B7: COV_2057 (antibody, V domains shown)
VH: EVQLVQSGAEVKKPGESLKISCKGSGYSFISYWIAWVRQMPGKGLEWMGIIYPGDSDTTYSPSFQGQVTISADKSISTAYLQWSSLKASDTAIYYCARLLYYSDSSPLDSWGQGTLVTVSS
VL: DIQMTQSPSSLSASVGDRVTITCRASQSISTYLNWYQQKPGKAPNLLIYAASSLQSGVPSRFSGSGSGTDFTLTISSLQPEDFATYYCQQSHSTPRTFGPGTKVDIK
notes: human IgG1
B8: COV_2028 (antibody, V domains shown)
VH: QVQLQESGPGLVKPSGTLSLTCVVSGGSISSSNWWSWVRQPPGKGLEWIGEIYHSGSTNYNPSLKSRVTISVDKSKNQFSLRLTSVTAADTAVYYCARGWNYDYWGQGTLVTVSS
VL: QSALTQPASVSGSPGQSITIACTGTSSDVGSYNLVSWYQQHPGKAPKLMIYEVSKRPSGLSNRFSGSKSGNTASLTISGLQAEDEADYYCYSYAGSSTWVFGGGTKLTVL
notes: human IgG1
B9: COV_2037 (antibody, V domains shown)
VH: QVQLVQSGAEVKKPGASVKVSCKVSGYTLTELSMHWVRQAPGKGLEWMGGFDPEDAETIYAQKFQGRVTMTEDTSTDTAYMELSSLRSEDTAVYYCATAGAITGTPTNYSYYYGMDFWGQGTTVTVSS
VL: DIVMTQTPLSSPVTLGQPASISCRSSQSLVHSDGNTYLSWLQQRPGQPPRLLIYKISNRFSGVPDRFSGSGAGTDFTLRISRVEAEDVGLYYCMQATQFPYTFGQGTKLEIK
notes: human IgG1

For one test, the target named is SARS-CoV-1 spike antigens (bead panel) (SARS-CoV-1, UniProt P59594 14-1195). In words: multiplex bead assay.
In the case of B1, the binding result is recorded as “no binding”.

In the case of B2, the binding result is listed as “no binding”.

For B3, the binding result is recorded as “no binding”.

Take B4: the binding result is “no binding”.

Consider B5, for which the binding result is reported as “no binding”.

As to B6, the binding result is given as “no binding”.

As to B7, the binding result is listed as “no binding”.

With B8, the binding result was “no binding”.

As for B9, the binding result is reported as “no binding”.

The target in the next test is T1, HCoV-NL63 spike antigens (bead panel). In words: multiplex bead assay.
In the case of B1, the binding result is “no binding”.

Turning to B2, the binding result was “no binding”.

In the case of B3, the binding result is “no binding”.

On to B4, for which the binding result is on record as “no binding”.

On to B5, for which the binding result is listed as “no binding”.

As for B6, the binding result was “no binding”.

B7: the binding result is “no binding”.

For the molecule B8, the binding result is given as “no binding”.

B9: the binding result is recorded as “no binding”.

The target in another test is T2, HCoV-OC43 spike antigens (bead panel). In words: multiplex bead assay.
Take B1: the binding result is listed as “no binding”.

As for B2, the binding result is on record as “no binding”.

Regarding B3, the binding result was “no binding”.

In the case of B4, the binding result is “no binding”.

As to B5, the binding result is on record as “no binding”.

As for B6, the binding result is on record as “no binding”.

As to B7, the binding result was “no binding”.

B8: the binding result was “no binding”.

B9: the binding result is on record as “no binding”.

For a further test, the target named is SARS-CoV-2 S on pseudovirions (Wuhan Hu-1 / IL1/2020, last 18 amino acids removed) (SARS-CoV-2, UniProt P0DTC2 14-1273). As to the kind of experiment: cell-based or functional assay.
As for B1, the “Mean IC50, pSV neutralization” value came out at 0.02 µg/ml and the “Mean IC80, pSV neutralization” value was 23.4 µg/ml.

Take B2: the “Mean IC50, pSV neutralization” value is no less than 25 µg/ml and the “Mean IC80, pSV neutralization” value was no less than 25 µg/ml.

For B3, the “Mean IC50, pSV neutralization” value is no less than 25 µg/ml and the “Mean IC80, pSV neutralization” value was no less than 25 µg/ml.

Turning to B4, the “Mean IC50, pSV neutralization” value is no less than 25 µg/ml and the “Mean IC80, pSV neutralization” value was no less than 25 µg/ml.

Take B5: the “Mean IC50, pSV neutralization” value is 0.16 µg/ml and the “Mean IC80, pSV neutralization” value came out at 0.45 µg/ml.

Turning to B6, the “Mean IC50, pSV neutralization” value was determined as 0.04 µg/ml and the “Mean IC80, pSV neutralization” value is no less than 25 µg/ml.

With B7, the “Mean IC50, pSV neutralization” value came out at 0.97 µg/ml and the “Mean IC80, pSV neutralization” value was determined as 8.99 µg/ml.

On to B8, for which the “Mean IC50, pSV neutralization” value was no less than 25 µg/ml and the “Mean IC80, pSV neutralization” value is no less than 25 µg/ml.

On to B9, for which the “Mean IC50, pSV neutralization” value worked out at 0.07 µg/ml and the “Mean IC80, pSV neutralization” value was no less than 25 µg/ml.
